The values that follow come from article PMC10706732.

The target in the experiment is Human ceruloplasmin (human) (UniProt P00450). As to the kind of experiment: SPR; Biacore X100; human CP immobilised on CM5 chip by EDC/NHS (3.3 ng/mm2); LF or LF/8OA as analyte in HBS-P+ (150 mM NaCl, 10 mM Hepes pH 7.5, 0.05% polyoxyethylene sorbitan), 30 uL/min; 1:1 Langmuir model. On the technique in general: SPR reads the build-up and loss of mass on a sensor chip optically.
Sequence of UniProt P00450 (P00450 20-1065): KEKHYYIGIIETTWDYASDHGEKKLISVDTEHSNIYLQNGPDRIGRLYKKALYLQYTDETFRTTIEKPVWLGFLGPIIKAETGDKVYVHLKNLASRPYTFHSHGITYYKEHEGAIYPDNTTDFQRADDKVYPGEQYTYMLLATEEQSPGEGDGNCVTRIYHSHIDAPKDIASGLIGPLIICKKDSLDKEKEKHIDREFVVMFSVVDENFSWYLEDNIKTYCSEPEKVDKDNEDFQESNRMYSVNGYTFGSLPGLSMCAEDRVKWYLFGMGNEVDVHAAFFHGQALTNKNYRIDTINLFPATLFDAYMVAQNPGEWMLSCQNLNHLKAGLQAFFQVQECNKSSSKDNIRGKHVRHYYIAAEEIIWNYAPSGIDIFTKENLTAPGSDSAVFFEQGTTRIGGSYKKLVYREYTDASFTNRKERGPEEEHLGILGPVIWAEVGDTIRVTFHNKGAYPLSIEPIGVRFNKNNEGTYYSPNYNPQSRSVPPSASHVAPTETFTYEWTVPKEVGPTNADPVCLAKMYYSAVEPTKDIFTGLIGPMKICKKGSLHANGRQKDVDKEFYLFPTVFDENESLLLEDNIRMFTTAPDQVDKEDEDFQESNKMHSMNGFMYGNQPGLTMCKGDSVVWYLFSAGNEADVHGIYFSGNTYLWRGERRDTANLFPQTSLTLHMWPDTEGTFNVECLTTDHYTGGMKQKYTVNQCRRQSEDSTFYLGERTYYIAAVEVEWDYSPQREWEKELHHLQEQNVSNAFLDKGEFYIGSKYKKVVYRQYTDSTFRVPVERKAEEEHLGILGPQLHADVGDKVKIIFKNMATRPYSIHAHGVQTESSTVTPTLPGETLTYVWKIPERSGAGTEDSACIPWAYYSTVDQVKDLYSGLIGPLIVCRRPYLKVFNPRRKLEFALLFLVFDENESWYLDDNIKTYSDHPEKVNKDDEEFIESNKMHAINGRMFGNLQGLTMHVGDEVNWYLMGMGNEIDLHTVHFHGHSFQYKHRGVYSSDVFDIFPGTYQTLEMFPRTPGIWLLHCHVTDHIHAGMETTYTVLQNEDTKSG

The Kd is the constant that tells how readily two partners part at equilibrium. Read a high Kd as a looser complex. For “Complex formed by one human lactoferrin molecule and eight molecules of oleic acid”, the Kd is 407 nM.

“Recombinant human lactoferrin (natural protein)”: the dissociation constant (Kd) is 367 nM.
